Measurements from PMC9748371.
Values joined by “and” are separate entries in the source; they are usually repeats but may differ in a detail not shown here. Identical values can stand only once.

Molecular target: EGFR^K642G-mEGFP (UniProt P00533)
Experiment: number and brightness

- apparent brightness BE: 4.11 and 4.73 and 5.53
Substance: EGFR^K642G-mEGFP (from UniProt P00533) (receptor)
